Laboratory results taken from patent US20230212549A1, “COMPOUNDS COMPRISING A […] LIGAND AND USE THEREOF” (priority 2021, published 2023).
Bridge positions count the residues as written; N and C are the ends.

Legend:
Test in all cases: radioligand displacement (antagonist radioligand), 10 µM
Details in all cases: remark: other sources report otherwise
[1] = biological target: T1, alpha 1A (h) (human), P35348
T1 chain: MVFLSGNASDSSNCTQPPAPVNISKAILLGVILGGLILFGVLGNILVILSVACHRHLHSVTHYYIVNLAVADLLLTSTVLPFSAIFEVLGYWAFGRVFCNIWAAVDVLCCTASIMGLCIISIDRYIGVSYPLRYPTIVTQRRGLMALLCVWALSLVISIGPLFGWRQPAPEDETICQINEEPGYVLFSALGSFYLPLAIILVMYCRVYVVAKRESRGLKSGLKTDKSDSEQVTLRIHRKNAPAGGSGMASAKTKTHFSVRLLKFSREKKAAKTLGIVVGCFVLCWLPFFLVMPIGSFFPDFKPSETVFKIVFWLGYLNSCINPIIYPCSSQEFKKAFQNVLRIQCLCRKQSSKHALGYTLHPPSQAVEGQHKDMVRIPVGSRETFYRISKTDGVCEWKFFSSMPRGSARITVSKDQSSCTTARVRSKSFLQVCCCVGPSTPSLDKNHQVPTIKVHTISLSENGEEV

[2] = biological target: norepinephrine transporter (h) (human), P23975
Sequence of norepinephrine transporter (h) (human), P23975 (P23975 whole entry): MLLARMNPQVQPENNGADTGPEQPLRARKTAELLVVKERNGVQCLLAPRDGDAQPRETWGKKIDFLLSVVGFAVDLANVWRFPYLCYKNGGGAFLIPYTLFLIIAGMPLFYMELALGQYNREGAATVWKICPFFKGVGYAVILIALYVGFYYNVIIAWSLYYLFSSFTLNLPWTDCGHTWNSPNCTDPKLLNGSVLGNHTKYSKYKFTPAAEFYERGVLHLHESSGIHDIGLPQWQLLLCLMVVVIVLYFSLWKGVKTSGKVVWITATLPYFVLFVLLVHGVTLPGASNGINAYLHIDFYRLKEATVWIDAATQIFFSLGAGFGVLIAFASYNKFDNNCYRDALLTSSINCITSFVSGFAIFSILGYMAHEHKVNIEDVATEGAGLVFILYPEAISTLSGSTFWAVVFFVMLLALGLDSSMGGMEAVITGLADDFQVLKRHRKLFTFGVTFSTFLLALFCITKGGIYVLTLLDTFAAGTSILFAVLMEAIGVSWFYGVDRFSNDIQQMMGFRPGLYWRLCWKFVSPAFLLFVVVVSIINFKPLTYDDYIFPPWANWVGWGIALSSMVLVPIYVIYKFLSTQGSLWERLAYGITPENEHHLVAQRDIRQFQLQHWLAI

[3] = biological target: T2, alpha 2A (h) (human), P08913
T2 chain: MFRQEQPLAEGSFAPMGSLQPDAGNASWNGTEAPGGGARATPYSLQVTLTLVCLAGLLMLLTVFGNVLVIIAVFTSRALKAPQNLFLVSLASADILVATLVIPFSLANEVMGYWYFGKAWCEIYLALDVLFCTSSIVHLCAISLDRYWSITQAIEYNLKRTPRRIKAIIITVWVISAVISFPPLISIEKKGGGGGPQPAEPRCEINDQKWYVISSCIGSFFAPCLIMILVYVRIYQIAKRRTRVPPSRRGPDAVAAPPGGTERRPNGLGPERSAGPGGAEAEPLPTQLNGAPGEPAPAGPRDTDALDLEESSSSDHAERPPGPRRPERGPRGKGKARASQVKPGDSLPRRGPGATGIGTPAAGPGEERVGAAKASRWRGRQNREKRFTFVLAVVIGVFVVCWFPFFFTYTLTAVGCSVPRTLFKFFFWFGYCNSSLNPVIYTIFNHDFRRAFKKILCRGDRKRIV

[4] = biological target: T3, D1 (h) (human), P21728
T3 chain: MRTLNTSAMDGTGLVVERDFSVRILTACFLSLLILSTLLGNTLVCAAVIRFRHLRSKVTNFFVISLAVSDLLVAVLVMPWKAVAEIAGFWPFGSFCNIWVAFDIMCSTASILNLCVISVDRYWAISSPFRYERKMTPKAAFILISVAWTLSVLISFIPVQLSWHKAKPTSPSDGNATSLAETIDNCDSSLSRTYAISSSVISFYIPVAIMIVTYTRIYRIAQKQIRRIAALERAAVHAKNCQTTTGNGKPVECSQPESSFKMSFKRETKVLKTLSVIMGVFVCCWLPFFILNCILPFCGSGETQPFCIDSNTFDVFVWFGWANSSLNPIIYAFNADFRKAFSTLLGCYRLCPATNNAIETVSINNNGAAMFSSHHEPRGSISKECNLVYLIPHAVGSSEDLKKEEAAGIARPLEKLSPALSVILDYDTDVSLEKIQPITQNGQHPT

[5] = biological target: T4, dopamine transporter (h) (human), Q01959
T4 chain: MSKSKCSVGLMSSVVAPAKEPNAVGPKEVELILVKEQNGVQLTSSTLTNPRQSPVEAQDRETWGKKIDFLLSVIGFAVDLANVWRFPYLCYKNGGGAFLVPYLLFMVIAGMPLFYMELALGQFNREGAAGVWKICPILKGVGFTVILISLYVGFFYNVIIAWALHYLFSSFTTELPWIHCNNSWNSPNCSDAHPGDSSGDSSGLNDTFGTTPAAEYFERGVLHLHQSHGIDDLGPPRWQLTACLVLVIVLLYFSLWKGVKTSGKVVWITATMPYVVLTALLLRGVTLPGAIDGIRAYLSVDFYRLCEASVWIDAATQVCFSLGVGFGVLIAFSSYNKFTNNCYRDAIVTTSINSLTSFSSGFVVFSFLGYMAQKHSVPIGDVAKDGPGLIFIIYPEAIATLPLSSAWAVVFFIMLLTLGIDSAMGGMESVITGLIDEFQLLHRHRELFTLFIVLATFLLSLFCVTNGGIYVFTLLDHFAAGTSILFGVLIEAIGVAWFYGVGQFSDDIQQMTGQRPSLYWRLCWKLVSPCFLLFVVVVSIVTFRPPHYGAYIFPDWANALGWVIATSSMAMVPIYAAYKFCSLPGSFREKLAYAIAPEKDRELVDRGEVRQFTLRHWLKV

[6] = biological target: M3 (h) (human), P20309
Sequence of M3 (h) (human), P20309 (P20309 whole entry): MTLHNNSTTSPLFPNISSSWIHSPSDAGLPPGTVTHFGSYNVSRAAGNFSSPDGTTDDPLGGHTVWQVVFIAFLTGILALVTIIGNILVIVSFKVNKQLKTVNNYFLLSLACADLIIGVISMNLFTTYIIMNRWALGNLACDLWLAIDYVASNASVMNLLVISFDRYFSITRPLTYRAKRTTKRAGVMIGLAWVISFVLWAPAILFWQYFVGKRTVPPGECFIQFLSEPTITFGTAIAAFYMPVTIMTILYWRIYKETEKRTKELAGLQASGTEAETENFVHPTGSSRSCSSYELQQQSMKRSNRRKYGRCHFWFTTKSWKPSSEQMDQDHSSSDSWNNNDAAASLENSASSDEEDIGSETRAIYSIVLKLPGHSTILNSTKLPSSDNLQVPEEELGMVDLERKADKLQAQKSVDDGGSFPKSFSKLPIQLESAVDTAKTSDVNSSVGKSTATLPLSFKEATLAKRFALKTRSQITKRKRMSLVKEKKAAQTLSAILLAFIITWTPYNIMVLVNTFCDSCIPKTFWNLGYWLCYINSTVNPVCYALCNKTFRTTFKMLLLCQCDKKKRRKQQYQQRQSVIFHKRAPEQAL

[7] = biological target: 5-HT1B(h) (human), P28222
Sequence of 5-HT1B(h) (human), P28222 (P28222 whole entry): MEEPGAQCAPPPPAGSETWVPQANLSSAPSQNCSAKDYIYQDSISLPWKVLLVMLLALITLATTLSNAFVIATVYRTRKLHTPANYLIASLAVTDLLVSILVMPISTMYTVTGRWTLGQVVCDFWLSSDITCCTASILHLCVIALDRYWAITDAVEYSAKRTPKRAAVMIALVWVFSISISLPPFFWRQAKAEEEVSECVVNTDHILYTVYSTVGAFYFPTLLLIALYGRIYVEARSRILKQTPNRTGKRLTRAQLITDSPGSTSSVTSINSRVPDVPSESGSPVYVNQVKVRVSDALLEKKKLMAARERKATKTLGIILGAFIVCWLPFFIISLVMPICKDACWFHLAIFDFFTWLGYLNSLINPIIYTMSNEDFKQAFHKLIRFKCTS

B1: Hex-[Cys(tMeBn(DOTA-PP))-Pro-Pro-Thr-Gln-Phe-Cys]-Asp-NH2 (peptide)
peptide: Hex-CPPTQFCD-NH2
modifications: bridge 1-7; not fully specified (bridges); printed as Hex-[Cys(tMeBn(DOTA-PP))-Pro-Pro-Thr-Gln-Phe-Cys]-Asp-NH2
- % Inhibition of Specific Binding [1]: 2%
- % Inhibition of Specific Binding [2]: -8%
- % Inhibition of Specific Binding [3]: -9%
- % Inhibition of Specific Binding [4]: 0%
- % Inhibition of Specific Binding [5]: 12%
- % Inhibition of Specific Binding [6]: 10%
- % Inhibition of Specific Binding [7]: -11%

B2: Hex-[Cys(tMeBn(DOTA-AET))-Pro-Pro-Thr-Gln-Phe-Cys]-OH (peptide)
peptide: Hex-CPPTQFC-OH
modifications: bridge 1-7; not fully specified (bridges); printed as Hex-[Cys(tMeBn(DOTA-AET))-Pro-Pro-Thr-Gln-Phe-Cys]-OH
- % Inhibition of Specific Binding [1]: -12%
- % Inhibition of Specific Binding [2]: -5%
- % Inhibition of Specific Binding [3]: 2%
- % Inhibition of Specific Binding [4]: 7%
- % Inhibition of Specific Binding [5]: 7%
- % Inhibition of Specific Binding [6]: 1%
- % Inhibition of Specific Binding [7]: 8%
